Experiments:
db/db mice = test: Heart and gastrocnemius muscle weight in db/db mice (Example 1); settings: day 28; NT-4/5 20 mg/kg s.c., Rosiglitazone 3 mg/kg p.o.
Description: Test animals: 24 female 10-12 weeks old db/db mice (C57BL/Ks J Rj-db/db, Janvier, France), weighing in the target range of 40-50 g, were used in this study. These mice were housed in a temperature (19.5-24.5° C.) and relative humidity (45-65%) controlled room with a 12-hour light/dark cycle, with ad libitum access to filtered tap-water and irradiated pelleted laboratory chow (SAFE, France) throughout the study. Upon receipt at animal facilities, they were housed 4 per cage covered with filtered caps and at least a 5-day acclimation period was observed.
The mice were divided into three groups of 8 mice each (groups 1-3). Each group was treated with vehicle (PBS) subcutaneously (s.c.), 3 mg/kg Rosiglitazone orally (p.o.), or 20 mg/kg NT-4/5 subcutaneously (s.c.). From day 1 to day 5 (T1-T5) and then from day 8 to day 12 (T8-T12), the mice in groups 2 and 3 were dosed once daily for 5 consecutive days, with a volume of 10 ml/kg.
Heart weight and gastrocnemius weight were measured on day 28 for vehicle, Rosiglitazone, and NT-4/5 treated mice.

[1] = tested on: NONcNZO-10 polygenic obese mice; test: Body weight in NONcNZO-10 mice (Example 4, Table 19); format: in vivo
Source text: Test animals: 40 male NONcNZO-10 polygenic obese mice obtained from Jackson Laboratory at 10 weeks of age weighing in the range of 26-32 g were used in this study.
Administration of NT-4/5: NT-4/5 was produced in E. coli as descried in U.S. Pat. No. 6,184,360. The mice were divided into 6 groups of equivalent body weight and baseline blood glucose distribution (6-7 mice per group). […] A “paired-fed” control group received daily injection of vehicle, but were only fed with the same amount of food the 3 mg/kg group consumed the previous day. On the day when the treatment started (day 1), a baseline blood samples were collected for measuring glucose and triglyceride. Triglyceride level was measured on day 10. At the end of the study (day 12), a terminal blood sample was collected to determine glucose, triglyceride, electrolytes (Na, K, Cl), testoterone, corticosterone, thyroid hormone (total T4) and thyroid stimulating hormone (TSH) levels. Electrolytes, free testosterone, T4 and TSH levels of serum samples were measured by AniLytics (Gaithesburg, M.D) according to the standard protocols employed by the vendor. Other analytes were measured as described above. Body weight, food intake were monitored 5 days per week through out the entire study. Daily water intake was measured from day 5 through day 7.

[2] = tested on: NONcNZO-10 polygenic obese mice; test: Pegylated NT-4/5 cysteine mutant on body weight, food intake, glucose, triglyceride in NONcNZO-10 mice (Example 6); format: in vivo
Description: Test animals: 30 male NONcNZO-10 polygenic obese mice at 10 weeks of age weighing in the range of 27-32 g were used in this study.
Administration of NT-4/5 and pegylated NT-4/5: The mice were divided into 4 groups of equivalent body weight distribution (7-8 mice per group). Each group received on the first day (day 1) of the study one and the only dose of either vehicle alone, 1 mg/kg of NT-4/5 or 1 mg/kg of PEG-NT4-S50C, respectively. A final group received a daily subcutaneous dose of 1 mg/kg of NT-4/5 from day 1 to day 5, then from day 7 to day 9. On day 9 after the treatment started, blood samples were collected to determine serum glucose and triglyceride levels. Body weight and food intake were monitored 5 days a week through out the entire study.

DIO mice = test: Weekly intravenous pegylated G1S NT-4/5 versus WT NT-4/5 on body weight and food intake in DIO mice (Example 8); format: in vivo
Source text: Test animals: Mice with diet induced obesity (DIO) were used in this study. 29 male C57BL/6J mice were weaned at 4 weeks of age. Immediately after weaning, they were put on 58% high fat diet (D12331i, Research Diet) through out the study. The DIO mice at 13 weeks of age weighing in the range of 28-40 g were used in this study.
Administration of NT-4/5 and pegylated NT-4/5: NT-4/5 was obtained from Genentech Inc. or produced as described in U.S. Pat. No. 6,184,360. Pegylated NT-4/5 was produced as follows: A mutation was introduced by changing the glycine 1 position of mature human NT-4/5 sequence to serine, resulting in a mutant form of NT-4/5 (NT4-G1S). NT4-G1S protein was expressed in E. coli, solubilized, extracted, purified and refolded as described above. Refolded NT4-G1S was dialyzed into 50 mM sodium phosphate buffer at pH 6.8 and treated with 1.5 molar excess sodium meta-periodate for 10 minutes to oxidize the N-terminal serine (or threonine) residue to an aldehyde. Remaining periodate was removed by dialysis against 30 mM sodium acetate at pH 4.5. The exact concentration of NT4-G1S was determined and a 2 to 4 fold molar excess of 20K-m-PEG-HZ (methoxy polyethylene glycol hydrazide) was added. The reaction was incubated at 37° C. for several days with gentle agitation. Unconjugated PEG, pegylated NT4-G1S and non-pegylated NT4-G1S were separated via ion exchange or size exclusion chromatography.
The mice were divided into 3 groups of equivalent body weight and baseline blood glucose distribution (7-8 mice per group). Each group received four weekly intravenous doses (on day 1, 8, 15 and 22) of either vehicle, 2 mg/kg of NT-4/5 or 2 mg/kg of pegylated G1S NT-4/5 respectively. Body weight and food intake were monitored 5 days per week through out the entire study.

db/db female mice = test: Survival time in db/db mice (Example 12); format: in vivo
Description: Db/db female mice maintained as described in Example 1 were divided into two groups. Group 1 (8 mice) were administered with vehicle (PBS). Group 2 (6 mice) was each administered with NT-4/5 at the doses of 20 mg/kg. Both the vehicle and NT-4/5 were administered subcutaneously once daily from day 1 to day 26, and were then followed up for survival. Mortality is defined by the body wasting below 60% of the starting body weight (i.e., from about 40 g down to about 24 g) or natural death, whichever happened first.

p75NTR = target: T1, p75NTR (Homo sapiens, UniProt P08138); settings: low affinity receptor (LNGFR, p75NTR); cited from earlier work
T1 sequence (P08138 29-427): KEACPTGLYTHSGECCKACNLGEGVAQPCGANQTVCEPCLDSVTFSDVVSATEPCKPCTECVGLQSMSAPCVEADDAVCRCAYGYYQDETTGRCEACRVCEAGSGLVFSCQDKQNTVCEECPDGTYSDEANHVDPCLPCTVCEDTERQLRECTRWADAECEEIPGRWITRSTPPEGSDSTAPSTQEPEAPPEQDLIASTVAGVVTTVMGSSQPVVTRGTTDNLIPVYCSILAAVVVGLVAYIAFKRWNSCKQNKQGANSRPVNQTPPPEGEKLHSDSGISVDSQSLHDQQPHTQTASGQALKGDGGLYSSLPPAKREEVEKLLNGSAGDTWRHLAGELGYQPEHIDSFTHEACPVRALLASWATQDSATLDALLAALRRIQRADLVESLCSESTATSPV

[3] = single subcutaneous injection of 1 mg/kg, day 9

Molecule | Gastrocnemius weight (db/db mice) [g] | Heart weight (db/db mice) [g] | body weight loss relative to the vehicle control ([1]; 1 mg/kg) | body weight loss relative to the vehicle control ([1]; 3 mg/kg) | body weight ([1]; dose dependent manner) | triglyderide level reduction ([2]; daily dose of 1 mg/kg, on average, P<0.01) | blood glucose level reduction ([2]; daily dose of 1 mg/kg, on average, P<0.05) | Daily food intake ([2]; daily injection of 1 mg/kg) | body weight ([2]; daily injection of 1 mg/kg) | blood glucose level [2, 3] | triglyceride level [2, 3] | body weight, pairwise difference with the vehicle control group (DIO mice; 2 mg/kg i.v. on day 1, 8, 15, 22, Bonferroni posttests) | body weight with long term weekly dosing (DIO mice; 2 mg/kg i.v. weekly) | median length of survival (db/db female mice; 20 mg/kg s.c. daily day 1 to 26, n=6) [days] | difference in median survival versus vehicle control (db/db female mice; vehicle 192.5 days, not statistically significant (P=0.1331)) [days] | Kd (p75NTR) [nM]
CN(CCOc1ccc(CC2SC(=O)NC2=O)cc1)c1ccccn1 (stereo not shown) [Rosiglitazone, reference compound] | 0.074 | 0.114 | – | – | – | – | – | – | – | – | – | – | – | – | – | –
NT-4/5: mature human neurotrophin-4/5 (SEQ ID NO:1), obtained from Genentech or produced in E. coli (protein, listed as Homo sapiens) GVSETAPASRRGELAVCDAVSGWVTDRRTAVDLRGREVEVLGEVPAAGGSPLRQYFFETRCKADNAEEGGPGAGGGGCRGVDRRHWVSECKAKQSYVRALTADAQGRVGWRWIRIDTACVCTLLSRTGRA | – | – | about 5% | about 10% | reduced body weight | about 50% | about 50% | without affecting daily food intake | significantly reduced body weight | did not significantly reduce | did not significantly reduce | significant pairwise differences | more effective in maintaining lower body weight | 257 | 65 | 2

From patent US20090203610A1, “METHODS OF TREATING OBESITY OR DIABETES USING NT-4/5” (RINAT NEUROSCIENCE CORPORATION, priority 2004, published 2009)
